{"source": "patent US6348573B1", "about": "“Compositions and methods for identifying apoptosis signaling pathway inhibitors and activators” (The Regents of the University of Michigan, priority 1998, dated 2002)", "key": {"[1]": {"system": "293T cells", "assay": "Apoptosis assay, CIDE transfection", "format": "cell-based, human", "procedure": "Apoptosis Assays, fluorescence staining of nuclear DNA and DNA fragmentation assay: 5×10^5 293T cells were co-transfected with 0.2 μg of pcDNA3-β-gal plus each expression plasmid in triplicate by the calcium phosphate method as reported [N. Inohara et al, “CLARP, a death effector domain-containing protein interacts with caspase-8 and regulates apoptosis,” Proc. Natl. Acad. Sci. USA 94:10717-10722 (1997a)].\nMCF7 were cotransfected with vector control or CIDE-A and β-galactosidase-expressing reporter construct by Lipofectamine (Gibco BRL) according to the manufacturer's instructions. In some experiments, 20 μM zVAD-fmk (benzyloxycarbonyl-Val-Ala-Asp-(OMe)-fluoromethylketone), zFA-fmk (benzyloxycarbonyl-Phe-Ala-(OMc)-fluoromethylketone) and zDEVD-fmk (benzyloxycarbonyl-Asp-Glu-Val-Asp-(OMe)-fluoromethylketone) were added into medium at 8 hr after transfection. zFA-fmk, zVAD-fmk and zDEVD-fmk were obtained from Enzyme Systems. At 24 hours after transfection, cells were fixed, stained for β-galactosidase as described [N. Inohara et al., “CLARP, a death effector domain-containing protein interacts with caspase-8 and regulates apoptosis,” Proc. Natl. Acad. Sci. USA 94:10717-10722 (1997a)] and assayed for morphological features of apoptosis. At least 300 hundred blue-staining cells were counted. Statistical significance was determined by one-way ANOVA followed by Student-Neuman-Keuls post-doc comparisons.\nNuclear staining with acridine-orange was performed as described [N. Inohara et al., “harakiri, a novel regulator of cell death, encodes a protein that activates apoptosis and interacts selectively with survival-promoting proteins Bcl-2 and Bcl-XL.,” EMBO J. 16:1686-1694 (1997b)]. Genomic DNA was extracted and analyzed for DNA fragmentation as described [X. Liu et al., “Apaf-1, a human protein homologous to C. elegans CED-4, participates in cytochrome c-dependent activation of caspase-3,” Cell 90:405-413 (1997)]."}, "[2]": {"system": "293T cells", "assay": "Apoptosis assay, RICK co-transfection", "format": "cell-based, human", "details": "for caspase-8-induced apoptosis potentiated by RICK: 293T cells, zVAD-fmk 20 μM added at 8 hrs after transfection, p35 by expression plasmid", "procedure": "The total amount of transfected plasmid DNA was adjusted with pcDNA3 plasmid to be the same within individual experiments. After transfection, 293T cells were harvested at different times and lysed with 0.2% NP-40 isotonic lysis buffer [N. Inohara et al., Proc. Natl. Acad. Sci. U.S.A. 94:10717-10722 (1997)]. The B lymphocyte-derived BJAB cell line was stably trasnfected by electroporation with pcDNA3 or pcDNA3-Flag-RICK (K38M). After selection with […] (1 μg/ml), bulk cell lines were tested for RICK protein expression with anti-Flag antibody by flow cytometric analysis. For immunoprecipitation, 1 mg of soluble protein was incubated with 10 μg/ml of polyclonal anti-Flag, anti-myc or control antibody overnight at 4° C. and tagged proteins were immunoprecipitated with Protein A-Sepharose 4B (Zymed Laboratories Inc.). Immunoprecipitated proteins or total lysates were subjected to 12% SDS-polyacrylamide electrophoresis and immunoblotted with monoclonal antibodies (mAb) to HA (Boeringer Mannheim) or Flag (Kodak).\nApoptosis Assays: 5×10^5 293T cells were co-transfected with 0.2 μg of pcDNA3-β-gal plus each expression plasmid in triplicate by the calcium phosphate method as reported [N. Inohara et al., Proc. Natl. Acad. Sci. U.S.A. 94:10717-10722 (1997)]. In some experiments, 20 μM of the caspase inhibitor zVAD-fmk (Enzyme Systems Products) or 12.5 μl of medium from […] cells producing Fas ligand (Immunex Corporation, Seattle, Wash.) was added at 8 hrs after transfection. At 18 or 24 hours after transfection, cells were fixed, stained for β-galactosidase as described [N. Inohara et al., Proc. Natl Acad. Sci. U.S.A. 94:10717-10722 (1997)] and assayed for morphological features of apoptosis. At least 300 hundred blue-staining cells were counted. BJAB apoptosis induced by anti-Apol mAb was determined by flow cytometric analysis of nuclei stained with propidium iodide as described [R. Merino et al., J. Immunol. 155:3830-3838 (1995)]. Statistical significance was determined by one-way ANOVA followed by Student-Neuman-Keuls post-doc comparisons."}, "[3]": {"biological_target": "T1, Flag-tagged RICK (RIP-like interacting CLARP kinase), pcDNA3-Flag-RICK (human, UniProt O43353 11-540, limits assumed)", "T1 construct": "Entire open reading frame of RICK, expressed in 293T cells; also called CIPERK; Flag-CIPERK; not shown: N-terminal Flag tag", "T1 sequence (O43353 other isoform, or with tags, fused parts or gaps limits assumed)": "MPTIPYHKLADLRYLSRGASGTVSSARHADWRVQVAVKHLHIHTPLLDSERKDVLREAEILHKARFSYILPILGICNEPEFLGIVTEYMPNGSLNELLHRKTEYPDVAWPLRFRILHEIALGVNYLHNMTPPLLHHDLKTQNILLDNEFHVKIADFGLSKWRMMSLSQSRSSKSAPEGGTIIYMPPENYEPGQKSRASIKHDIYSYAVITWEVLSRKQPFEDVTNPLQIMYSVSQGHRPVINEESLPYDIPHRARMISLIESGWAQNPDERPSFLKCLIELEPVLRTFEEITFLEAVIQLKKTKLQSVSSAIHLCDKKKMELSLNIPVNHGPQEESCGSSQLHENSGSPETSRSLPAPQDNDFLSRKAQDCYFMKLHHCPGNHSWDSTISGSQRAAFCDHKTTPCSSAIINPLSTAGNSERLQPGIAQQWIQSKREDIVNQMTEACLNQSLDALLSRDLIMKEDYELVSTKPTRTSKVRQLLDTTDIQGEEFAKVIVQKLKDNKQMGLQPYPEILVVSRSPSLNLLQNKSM", "assay": "anti-Flag immunoprecipitation from co-transfected 293T cells, anti-HA immunoblot"}, "[4]": {"system": "293T cells", "assay": "β-galactosidase apoptosis assay, ARC co-transfection", "format": "cell-based, human", "procedure": "Briefly, 2 μg of pcDNA3 or pcDNA3-ARC-Flag or -HA was co-transfected with 3 μg of pcDNA3 or caspase expression plasmids. Total amount of transfected plasmid DNA was always 5 μg. 293T cells were harvested after 22 hr and lysed with 0.2% NP-40 isotonic lysis buffer [Z. N. Oltvai et al., Cell 74:609-619 (1993)]. For immunoprecipitation, […] of soluble protein was incubated with 10 μg/ml of polyclonal anti-Flag, monoclonal anti-AU1 or polyclonal anti-HA antibody for 2 hr at 4° C. and tagged proteins were immunoprecipitated with Protein A-Sepharose 4B (Zymed Laboratories Inc., San Francisco, Calif.). Immunoprecipitates were subjected to 12% SDS-polyacrylamide electrophoresis and immunoblotted with anti-Flag, anti-AU1 or anti-HA antibodies. β-galactosidase apoptosis assay and Caspase-8 enzymatic assay: 5×10^5 293T cells were transfected with 0.3 μg of pcDNA3-β-gal plus each expression plasmid in triplicate. Cells were fixed 16 hrs after transfection, stained for β-galactosidase and assayed for morphological features of apoptosis [M. Muira et al., Cell 75:653-660 (1993)]. Statistical significance was determined by one-way ANOVA followed by Student-Neuman-Keuls post-doc comparisons. For caspase-8 enzymatic assay, 1.5×10^6 human 293T cells were co-transfected with pcDNA3, pcDNA3-ARC-Flag, pcDNA3-caspase-8 and pcDNA3-caspase-8-mt by a calcium phosphate method. Total amount of transfected plasmid DNA was always 2.5 μg. 293T cells were harvested 18hr after transfection and lysed with 0.2% NP-40 isotonic lysis buffer. Tagged proteins were immunoprecipitated and caspase activity was measured as described [N. Inohara et al., Proc. Natl. Acad. Sci. USA 94:10717-10722 (1997)]."}}, "note": "Read-outs that look alike come from different tables or passages of the source. Peptide text beside a SMILES is read from it. * marks the point of attachment. Cbz = O=C(OCc1ccccc1)*; CH2F = FC*", "data": [{"molecule": "COC(=O)CC[C@H](NC(=O)[C@H](CC(=O)OC)NC(=O)OCc1ccccc1)C(=O)N[C@H](C(=O)N[C@@H](CC(=O)OC)C(=O)CF)C(C)C", "note": "[zDEVD-fmk, benzyloxycarbonyl-Asp-Glu-Val-Asp-(OMe)-fluoromethylketone, reference compound]", "values": [{"measurement": "killing activity of CIDE-A in presence of caspase inhibitors", "setting": "[1]", "value": "unaffected"}]}, {"molecule": "COC(=O)CC(NC(=O)C(C)NC(=O)C(NC(=O)OCc1ccccc1)C(C)C)C(=O)CF", "note": "(stereo not drawn) [zVAD-fmk, benzyloxycarbonyl-Val-Ala-Asp-(OMe)-fluoromethylketone, reference compound] (Cbz-Val-Ala-Asp(OMe)-CH2F; configuration not given here)", "values": [{"measurement": "apoptosis induced by caspase-8", "setting": "[1]; 293T cells, control experiment, same concentration (20 μM)", "value": "inhibited"}, {"measurement": "killing activity of CIDE-A in presence of caspase inhibitors", "setting": "[1]; 293T cells, peptide inhibitors 20 μM added at 8 hr after transfection, CrmA by plasmid", "value": "unaffected"}, {"measurement": "caspase-8-induced apoptosis potentiated by RICK", "setting": "[2]", "value": "inhibited"}]}, {"molecule": "human caspase-2, epitope-tagged (enzyme, UniProt P42575 18-452, looked up, also called AU1-tagged caspase-2; not shown: lette) MAADRGRRILGVCGMHPHHQETLKKNRVVLAKQLLLSELLEHLLEKDIITLEMRELIQAKVGSFSQNVELLNLLPKRGPQAFDAFCEALRETKQGHLEDMLLTTLSGLQHVLPPLSCDYDLSLPFPVCESCPLYKKLRLSTDTVEHSLDNKDGPVCLQVKPCTPEFYQTHFQLAYRLQSRPRGLALVLSNVHFTGEKELEFRSGGDVDHSTLVTLFKLLGYDVHVLCDQTAQEMQEKLQNFAQLPAHRVTDSCIVALLSHGVEGAIYGVDGKLLQLQEVFQLFDNANCPSLQNKPKMFFIQACRGDETDRGVDQQDGKNHAGSPGCEESDAGKEKLPKMRLPTRSDMICGYACLKGTAAMRNTKRGSWYIEALAQVFSERACDMHVADMLVKVNALIKDREGYAPGTEFHRCKEMSEYCSTLCRHLYLFPGHPPT", "values": [{"measurement": "binding result", "setting": "[3]", "value": "no binding"}]}, {"molecule": "CIDE-A (108-200): CIDE-A mutant containing the C-terminal half (protein, UniProt O70302 108-200, looked up, fragment) WTPGSKYVPVCKQPKKSGIARVTFDLYRLNPKDFLGCLNVKATMYEMYSVSYDIRCTSFKAVLRNLLRFMSYAAQMTGQFLVYAGTYMLRVLG", "values": [{"measurement": "induction of apoptosis (killing) of 293T cells by expression", "setting": "[1]; 293T cells", "value": "capable of inducing apoptosis"}, {"measurement": "killing activity compared with wild-type CIDE-A", "setting": "[1]; 293T cells", "value": "greater"}]}, {"molecule": "CIDE-A (1-107): CIDE-A mutant containing the N-terminal half with homology to DFF45 (protein, UniProt O70302 1-107, looked up, fragment) METARDYAGALIRPLTFMGLQTKKVLLTPLIHPARPFRVSNHDRSSRRGVMASSLQELISKTLDVLVITTGLVTLVLEEDGTVVDTEEFFQTLRDNTHFMILEKGQK", "values": [{"measurement": "induction of apoptosis (killing) of 293T cells by expression", "setting": "[1]; 293T cells", "value": "did not"}, {"measurement": "inhibition of CIDE-A-induced apoptosis by DFF45", "setting": "[1]; 293T cells, co-expression", "value": "antagonized"}]}, {"molecule": "truncated form of ARC: truncated form of ARC that expressed the CARD domain (amino acid 1-106) (protein, UniProt O60936 1-106, looked up, fragment) MGNAQERPSETIDRERKRLVETLQADSGLLLDALLARGVLTGPEYEALDALPDAERRVRRLLLLVQGKGEAACQELLRCAQRTAGAPDPAWDWQHVGPGYRDRSYD", "values": [{"measurement": "ability to suppress apoptosis induced by caspase-4, compared with full length ARC", "setting": "[4]", "value": "no significant difference"}, {"measurement": "ability to suppress apoptosis induced by caspase-8, compared with full length ARC", "setting": "[4]", "value": "no significant difference"}]}, {"molecule": "baculovirus p35: broad-based caspase inhibitor protein of baculovirus, expressed from plasmid (protein, UniProt P08160 1-299, looked up) Early 35 kDa protein: MCVIFPVEIDVSQTIIRDCQVDKQTRELVYINKIMNTQLTKPVLMMFNISGPIRSVTRKNNNLRDRIKSKVDEQFDQLERDYSDQMDGFHDSIKYFKDEHYSVSCQNGSVLKSKFAKILKSHDYTDKKSIEAYEKYCLPKLVDERNDYYVAVCVLKPGFENGSNQVLSFEYNPIGNKVIVPFAHEINDTGLYEYDVVAYVDSVQFDGEQFEEFVQSLILPSSFKNSEKVLYYNEASKNKSMIYKALEFTTESSWGKSEKYNWKIFCNGFIYDKKSKVLYVKLHNVTSALNKNVILNTIK", "values": [{"measurement": "caspase-8-induced apoptosis potentiated by RICK", "setting": "[2]", "value": "inhibited"}]}, {"molecule": "caspase-3, epitope-tagged (enzyme, UniProt P42574 1-277, looked up, also called pcDNA3-caspase-3-Flag; not shown: position and) MENTENSVDSKSIKNLEPKIIHGSESMDSGISLDNSYKMDYPEMGLCIIINNKNFHKSTGMTSRSGTDVDAANLRETFRNLKYEVRNKNDLTREEIVELMRDVSKEDHSKRSSFVCVLLSHGEEGIIFGTNGPVDLKKITNFFRGDRCRSLTGKPKLFIIQACRGTELDCGIETDSGVDDDMACHKIPVEADFLYAYSTAPGYYSWRNSKDGSWFIQSLCAMLKQYADKLEFMHILTRVNRKVATEFESFSFDATFHAKKQIPCIVSMLTKELYFYH", "values": [{"measurement": "binding result", "setting": "[3]", "value": "no binding"}]}, {"molecule": "deletion mutant missing the C-terminal 165 amino acids: RICK deletion mutant missing the C-terminal 165 amino acids that span the CARD domain (protein, UniProt O43353 1-365, looked up, fragment) MNGEAICSALPTIPYHKLADLRYLSRGASGTVSSARHADWRVQVAVKHLHIHTPLLDSERKDVLREAEILHKARFSYILPILGICNEPEFLGIVTEYMPNGSLNELLHRKTEYPDVAWPLRFRILHEIALGVNYLHNMTPPLLHHDLKTQNILLDNEFHVKIADFGLSKWRMMSLSQSRSSKSAPEGGTIIYMPPENYEPGQKSRASIKHDIYSYAVITWEVLSRKQPFEDVTNPLQIMYSVSQGHRPVINEESLPYDIPHRARMISLIESGWAQNPDERPSFLKCLIELEPVLRTFEEITFLEAVIQLKKTKLQSVSSAIHLCDKKKMELSLNIPVNHGPQEESCGSSQLHENSGSPETSRSLP", "values": [{"measurement": "apoptosis of 293T cells induced by Fas, Fas plus FasL or caspase-8", "setting": "[2]; co-expression with RICK deletion mutants", "value": "did not enhance apoptosis"}]}]}
